# In US20110118131A1 (published 2011):
# Target: T1, IL-1beta (UniProt P01584 117-269)
# T1 construct: also called IL-1β
# Experiment: Biacore
Binder,fold difference in affinity vs parental [fold],binding result
"XPA23 Fab, heavy chain S54N (Fab, V domains shown) VH: EVQLLESGGGLVQPGGSLRLSCAASGFTFSKYFMFWVRQAPGKGLEWVSVISPNGGMTRYADSVKGRFTISRDNSKNTLYLQMNSLRAEDTAVYYCARVGYGGNSDYWGQGTLVTVSS VL: DIQMTQSPSSVSASVGDRLTIICRASQDINRWLAWYQQTPGNAPKLLIHSATSLQSGVPSRFSGSGSGTDFTLTINSLQPEDFATYYCQQADSFPLTFGGGTKVEIK",0.08,–
"XPA23 Fab, heavy chain T58E (Fab, V domains shown) VH: EVQLLESGGGLVQPGGSLRLSCAASGFTFSKYFMFWVRQAPGKGLEWVSVISPSGGMERYADSVKGRFTISRDNSKNTLYLQMNSLRAEDTAVYYCARVGYGGNSDYWGQGTLVTVSS VL: DIQMTQSPSSVSASVGDRLTIICRASQDINRWLAWYQQTPGNAPKLLIHSATSLQSGVPSRFSGSGSGTDFTLTINSLQPEDFATYYCQQADSFPLTFGGGTKVEIK",–,no binding
"XPA23 Fab, heavy chain S105H (Fab, V domains shown) VH: EVQLLESGGGLVQPGGSLRLSCAASGFTFSKYFMFWVRQAPGKGLEWVSVISPSGGMTRYADSVKGRFTISRDNSKNTLYLQMNSLRAEDTAVYYCARVGYGGNHDYWGQGTLVTVSS VL: DIQMTQSPSSVSASVGDRLTIICRASQDINRWLAWYQQTPGNAPKLLIHSATSLQSGVPSRFSGSGSGTDFTLTINSLQPEDFATYYCQQADSFPLTFGGGTKVEIK",0.05,–
"XPA23 Fab, heavy chain S105Q (Fab, V domains shown) VH: EVQLLESGGGLVQPGGSLRLSCAASGFTFSKYFMFWVRQAPGKGLEWVSVISPSGGMTRYADSVKGRFTISRDNSKNTLYLQMNSLRAEDTAVYYCARVGYGGNQDYWGQGTLVTVSS VL: DIQMTQSPSSVSASVGDRLTIICRASQDINRWLAWYQQTPGNAPKLLIHSATSLQSGVPSRFSGSGSGTDFTLTINSLQPEDFATYYCQQADSFPLTFGGGTKVEIK",0.98,–
"XPA23 Fab, heavy chain S105W (Fab, V domains shown) VH: EVQLLESGGGLVQPGGSLRLSCAASGFTFSKYFMFWVRQAPGKGLEWVSVISPSGGMTRYADSVKGRFTISRDNSKNTLYLQMNSLRAEDTAVYYCARVGYGGNWDYWGQGTLVTVSS VL: DIQMTQSPSSVSASVGDRLTIICRASQDINRWLAWYQQTPGNAPKLLIHSATSLQSGVPSRFSGSGSGTDFTLTINSLQPEDFATYYCQQADSFPLTFGGGTKVEIK",–,no binding
"XPA23 Fab, heavy chain T28G (Fab, V domains shown) VH: EVQLLESGGGLVQPGGSLRLSCAASGFGFSKYFMFWVRQAPGKGLEWVSVISPSGGMTRYADSVKGRFTISRDNSKNTLYLQMNSLRAEDTAVYYCARVGYGGNSDYWGQGTLVTVSS VL: DIQMTQSPSSVSASVGDRLTIICRASQDINRWLAWYQQTPGNAPKLLIHSATSLQSGVPSRFSGSGSGTDFTLTINSLQPEDFATYYCQQADSFPLTFGGGTKVEIK",–,no binding
"XPA23 Fab, heavy chain T28K (Fab, V domains shown) VH: EVQLLESGGGLVQPGGSLRLSCAASGFKFSKYFMFWVRQAPGKGLEWVSVISPSGGMTRYADSVKGRFTISRDNSKNTLYLQMNSLRAEDTAVYYCARVGYGGNSDYWGQGTLVTVSS VL: DIQMTQSPSSVSASVGDRLTIICRASQDINRWLAWYQQTPGNAPKLLIHSATSLQSGVPSRFSGSGSGTDFTLTINSLQPEDFATYYCQQADSFPLTFGGGTKVEIK",–,no binding
"XPA23 Fab, heavy chain S54Q (Fab, V domains shown) VH: EVQLLESGGGLVQPGGSLRLSCAASGFTFSKYFMFWVRQAPGKGLEWVSVISPQGGMTRYADSVKGRFTISRDNSKNTLYLQMNSLRAEDTAVYYCARVGYGGNSDYWGQGTLVTVSS VL: DIQMTQSPSSVSASVGDRLTIICRASQDINRWLAWYQQTPGNAPKLLIHSATSLQSGVPSRFSGSGSGTDFTLTINSLQPEDFATYYCQQADSFPLTFGGGTKVEIK",1.01,–
"XPA23 Fab, heavy chain T28Q (Fab, V domains shown) VH: EVQLLESGGGLVQPGGSLRLSCAASGFQFSKYFMFWVRQAPGKGLEWVSVISPSGGMTRYADSVKGRFTISRDNSKNTLYLQMNSLRAEDTAVYYCARVGYGGNSDYWGQGTLVTVSS VL: DIQMTQSPSSVSASVGDRLTIICRASQDINRWLAWYQQTPGNAPKLLIHSATSLQSGVPSRFSGSGSGTDFTLTINSLQPEDFATYYCQQADSFPLTFGGGTKVEIK",–,no binding
"XPA23 Fab, heavy chain T28E (Fab, V domains shown) VH: EVQLLESGGGLVQPGGSLRLSCAASGFEFSKYFMFWVRQAPGKGLEWVSVISPSGGMTRYADSVKGRFTISRDNSKNTLYLQMNSLRAEDTAVYYCARVGYGGNSDYWGQGTLVTVSS VL: DIQMTQSPSSVSASVGDRLTIICRASQDINRWLAWYQQTPGNAPKLLIHSATSLQSGVPSRFSGSGSGTDFTLTINSLQPEDFATYYCQQADSFPLTFGGGTKVEIK",–,no binding
"XPA23 Fab, heavy chain S105R (Fab, V domains shown) VH: EVQLLESGGGLVQPGGSLRLSCAASGFTFSKYFMFWVRQAPGKGLEWVSVISPSGGMTRYADSVKGRFTISRDNSKNTLYLQMNSLRAEDTAVYYCARVGYGGNRDYWGQGTLVTVSS VL: DIQMTQSPSSVSASVGDRLTIICRASQDINRWLAWYQQTPGNAPKLLIHSATSLQSGVPSRFSGSGSGTDFTLTINSLQPEDFATYYCQQADSFPLTFGGGTKVEIK",–,no binding
"XPA23 Fab, heavy chain S54Y (Fab, V domains shown) VH: EVQLLESGGGLVQPGGSLRLSCAASGFTFSKYFMFWVRQAPGKGLEWVSVISPYGGMTRYADSVKGRFTISRDNSKNTLYLQMNSLRAEDTAVYYCARVGYGGNSDYWGQGTLVTVSS VL: DIQMTQSPSSVSASVGDRLTIICRASQDINRWLAWYQQTPGNAPKLLIHSATSLQSGVPSRFSGSGSGTDFTLTINSLQPEDFATYYCQQADSFPLTFGGGTKVEIK",0.99,–
"XPA23 Fab, heavy chain S105F (Fab, V domains shown) VH: EVQLLESGGGLVQPGGSLRLSCAASGFTFSKYFMFWVRQAPGKGLEWVSVISPSGGMTRYADSVKGRFTISRDNSKNTLYLQMNSLRAEDTAVYYCARVGYGGNFDYWGQGTLVTVSS VL: DIQMTQSPSSVSASVGDRLTIICRASQDINRWLAWYQQTPGNAPKLLIHSATSLQSGVPSRFSGSGSGTDFTLTINSLQPEDFATYYCQQADSFPLTFGGGTKVEIK",1.25,–
"XPA23 Fab, heavy chain S54W (Fab, V domains shown) VH: EVQLLESGGGLVQPGGSLRLSCAASGFTFSKYFMFWVRQAPGKGLEWVSVISPWGGMTRYADSVKGRFTISRDNSKNTLYLQMNSLRAEDTAVYYCARVGYGGNSDYWGQGTLVTVSS VL: DIQMTQSPSSVSASVGDRLTIICRASQDINRWLAWYQQTPGNAPKLLIHSATSLQSGVPSRFSGSGSGTDFTLTINSLQPEDFATYYCQQADSFPLTFGGGTKVEIK",1.07,–

# Other lines, results leading:
fold difference in affinity vs parental [fold],binding result,Binder
1.43,–,"XPA23 Fab, heavy chain S54R (Fab, V domains shown) VH: EVQLLESGGGLVQPGGSLRLSCAASGFTFSKYFMFWVRQAPGKGLEWVSVISPRGGMTRYADSVKGRFTISRDNSKNTLYLQMNSLRAEDTAVYYCARVGYGGNSDYWGQGTLVTVSS VL: DIQMTQSPSSVSASVGDRLTIICRASQDINRWLAWYQQTPGNAPKLLIHSATSLQSGVPSRFSGSGSGTDFTLTINSLQPEDFATYYCQQADSFPLTFGGGTKVEIK"
–,no binding,"XPA23 Fab, heavy chain T28R (Fab, V domains shown) VH: EVQLLESGGGLVQPGGSLRLSCAASGFRFSKYFMFWVRQAPGKGLEWVSVISPSGGMTRYADSVKGRFTISRDNSKNTLYLQMNSLRAEDTAVYYCARVGYGGNSDYWGQGTLVTVSS VL: DIQMTQSPSSVSASVGDRLTIICRASQDINRWLAWYQQTPGNAPKLLIHSATSLQSGVPSRFSGSGSGTDFTLTINSLQPEDFATYYCQQADSFPLTFGGGTKVEIK"
0.85,–,"XPA23 Fab, heavy chain S105N (Fab, V domains shown) VH: EVQLLESGGGLVQPGGSLRLSCAASGFTFSKYFMFWVRQAPGKGLEWVSVISPSGGMTRYADSVKGRFTISRDNSKNTLYLQMNSLRAEDTAVYYCARVGYGGNNDYWGQGTLVTVSS VL: DIQMTQSPSSVSASVGDRLTIICRASQDINRWLAWYQQTPGNAPKLLIHSATSLQSGVPSRFSGSGSGTDFTLTINSLQPEDFATYYCQQADSFPLTFGGGTKVEIK"
0.12,–,"XPA23 Fab, heavy chain T58D (Fab, V domains shown) VH: EVQLLESGGGLVQPGGSLRLSCAASGFTFSKYFMFWVRQAPGKGLEWVSVISPSGGMDRYADSVKGRFTISRDNSKNTLYLQMNSLRAEDTAVYYCARVGYGGNSDYWGQGTLVTVSS VL: DIQMTQSPSSVSASVGDRLTIICRASQDINRWLAWYQQTPGNAPKLLIHSATSLQSGVPSRFSGSGSGTDFTLTINSLQPEDFATYYCQQADSFPLTFGGGTKVEIK"
–,no binding,"XPA23 Fab, heavy chain T28H (Fab, V domains shown) VH: EVQLLESGGGLVQPGGSLRLSCAASGFHFSKYFMFWVRQAPGKGLEWVSVISPSGGMTRYADSVKGRFTISRDNSKNTLYLQMNSLRAEDTAVYYCARVGYGGNSDYWGQGTLVTVSS VL: DIQMTQSPSSVSASVGDRLTIICRASQDINRWLAWYQQTPGNAPKLLIHSATSLQSGVPSRFSGSGSGTDFTLTINSLQPEDFATYYCQQADSFPLTFGGGTKVEIK"
1.17,–,"XPA23 Fab, heavy chain S105E (Fab, V domains shown) VH: EVQLLESGGGLVQPGGSLRLSCAASGFTFSKYFMFWVRQAPGKGLEWVSVISPSGGMTRYADSVKGRFTISRDNSKNTLYLQMNSLRAEDTAVYYCARVGYGGNEDYWGQGTLVTVSS VL: DIQMTQSPSSVSASVGDRLTIICRASQDINRWLAWYQQTPGNAPKLLIHSATSLQSGVPSRFSGSGSGTDFTLTINSLQPEDFATYYCQQADSFPLTFGGGTKVEIK"
–,no binding,"XPA23 Fab, heavy chain T28W (Fab, V domains shown) VH: EVQLLESGGGLVQPGGSLRLSCAASGFWFSKYFMFWVRQAPGKGLEWVSVISPSGGMTRYADSVKGRFTISRDNSKNTLYLQMNSLRAEDTAVYYCARVGYGGNSDYWGQGTLVTVSS VL: DIQMTQSPSSVSASVGDRLTIICRASQDINRWLAWYQQTPGNAPKLLIHSATSLQSGVPSRFSGSGSGTDFTLTINSLQPEDFATYYCQQADSFPLTFGGGTKVEIK"
–,no binding,"XPA23 Fab, heavy chain S105Y (Fab, V domains shown) VH: EVQLLESGGGLVQPGGSLRLSCAASGFTFSKYFMFWVRQAPGKGLEWVSVISPSGGMTRYADSVKGRFTISRDNSKNTLYLQMNSLRAEDTAVYYCARVGYGGNYDYWGQGTLVTVSS VL: DIQMTQSPSSVSASVGDRLTIICRASQDINRWLAWYQQTPGNAPKLLIHSATSLQSGVPSRFSGSGSGTDFTLTINSLQPEDFATYYCQQADSFPLTFGGGTKVEIK"
